Data from patent US12697350B2, “Methods and compositions for treating a premature termination codon-mediated disorder” (Tevard Biosciences, Inc., priority 2019, dated 2026).
Residue numbers refer to the chain shown, from its start.

B1: tRNA-Gln-TTG-3-1-TTA-SUP (nucleic acid)
chain: GGCCCCATGGTGTAATGGTTAGCACTCTGGACTTTAAATCCAGCGATCCGAGTTCAAATCTCGGTGGGACCT
modifications: expressed or natural sequence
B2: tRNA-Gln-TTG-1-1-TTA-SUP (nucleic acid)
chain: B1 chain with C3T
modifications: chemistry not fully specified
B3: tRNA-Gln-CTG-1-1-CTA-SUP (nucleic acid)
chain: B1 chain with C3T, T34C
modifications: chemistry not fully specified

How the values were obtained:
EGFP-Q69X-TAA reporter [1] = experiment: 100 nt 5′ leader sequence library with GlnTTA suppressor tRNA #163, EGFP-Q69X-TAA reporter, Flp-In-293 cells (FIGS. 30, 31, 32); assay type: cell-based, human
Source text: FIG. 27 is a schematic representation of the constructs used to test the impact of a 5′ leader sequence on the read-through of a premature termination codon (PTC) by a suppressor tRNA. Constructs contain (i) a 100 bp 5′ leader sequence derived from genomic DNA located upstream of tRNA genes that are highly expressed in HEK293 cells, (ii) a single copy of either the ArgTCA suppressor tRNA #115 (SEQ ID NO: 18) or the GlnTTA suppressor tRNA #163 (SEQ ID NO: 45), and (iii) an RNA polymerase III termination signal (“Term”).
FIG. 30 is a graph depicting the readthrough activity of the indicated GlnTTA suppressor tRNA expression constructs as measured by flow cytometry in Flp-In-293 cells at ~24 hours post transfection. […]
FIG. 31 is a graph depicting the readthrough activity of the indicated GlnTTA suppressor tRNA expression constructs as measured by flow cytometry in Flp-In-293 cells at ~24 hours post transfection. […]
The leader sequences in combination with the ArgTCA suppressor tRNA #115 (SEQ ID NO: 18) or the GlnTTA suppressor tRNA #163 (SEQ ID NO: 45) were tested for PTC readthrough activity by flow cytometry in cell lines co-transfected with an EGFP-R96X-TGA reporter (SEQ ID NO: 31) for ArgTCA constructs or an EGFP-Q69X-TAA reporter (SEQ ID NO: 175) for GlnTTA constructs.

EGFP-Q69X-TAA reporter [2] = experiment: PTC readthrough of GlnTTA suppressor tRNA #002 versus nonsense suppression drugs, EGFP-Q69X-TAA reporter, Neuro-2a cells (FIG. 33); assay type: cell-based, mouse; conditions: versus ataluren, gentamicin, G418 (FIG. 33)
Experimental: FIG. 33 is a graph depicting the percentage of EGFP positive cells as measured by flow cytometry in three independent experiments at ~48 hours post transfection. Neuro-2a cells were transfected with an expression construct containing the EGFP-Q69X-TAA reporter (“EGFP-PTC”) (SEQ ID NO: 175) and either (i) including the GlnTTA suppressor tRNA #002 (SEQ ID NO: 36) at the indicated copy number on the same construct, or (ii) treated with ataluren at the indicated concentration, (iii) treated with gentamicin at the indication concentration, or (iv) treated with G418 at the indicated concentration. […]
(§1) The suppressor tRNAs were tested alongside nonsense suppression drugs translarna (ataluren), gentamicin, and G418 (geneticin). PTC readthrough activity was measured in Neuro-2a cells ~48 hours after transfection with an expression construct containing a CAG:NLS-EGFP (Q69X-TAA) reporter (as described in Example 4, SEQ ID NO: 175) and either (i) including a Gln suppressor tRNA (either #002, tRNA-Gln-TTG-1-1-TTA-SUP, SEQ ID NO: 36, or #196, tRNA-Gln-TTG-1-1-CTA-SUP, SEQ ID NO: 178, both as described in Example 4) at the indicated copy number on the same construct, or (ii) treated with ataluren, (iii) treated with gentamicin, or (iv) treated with G418. […] PTC readthrough activity was measured as the percentage of EGFP positive cells as measured by flow cytometry. […]

Neuro-2a cells = assay type: cell-based, mouse
Experimental: FIG. 23 is a graph depicting cell viability from FIG. 22 as measured by flow cytometry at ~48 hours post transfection. Neuro-2a cells were transfected with an expression construct containing the EGFP-R96X-TGA reporter (“GFP-PTC”) and either (i) transfected with an expression construct including the ArgTCA suppressor tRNA #115 (SEQ ID NO: 18) at the indicated copy number on the same construct, or (ii) treated with ataluren at the indicated concentration, (iii) treated with gentamicin at the indication concentration, or (iv) treated with G418 at the indicated concentration. For all experimental conditions, cell culture medium was replaced with fresh medium ~6 hour after transfection and the indicated drugs at the indicated concentrations were added at this point. A reporter containing wildtype GFP without a PTC (“WT-GFP”) was used as a control. “Mock” indicates mock transfected cells. “4×TCG” indicates cells transfected with an expression construct that contains four copies of a wild-type Arg-tRNA with a TCG anticodon and the EGFP-R96X-TGA reporter. Cell viability was assessed by flow cytometry using 7-Amino Actinomycin D (7-AAD), a membrane impermeant dye that is generally excluded from viable cells.
FIG. 34 is a graph depicting cell viability from FIG. 33 as measured by flow cytometry at ~48 hours post transfection. […] Cell viability was assessed by flow cytometry using 7-Amino Actinomycin D (7-AAD), a membrane impermeant dye that is generally excluded from viable cells.
FIG. 36 is a graph depicting cell viability from FIG. 35 as measured by flow cytometry at ~48 hours post transfection. […] Cell viability was assessed by flow cytometry using 7-Amino Actinomycin D (7-AAD), a membrane impermeant dye that is generally excluded from viable cells. […]

EGFP-Q69X-TAG reporter = experiment: PTC readthrough of GlnCTA suppressor tRNA #196 versus nonsense suppression drugs, EGFP-Q69X-TAG reporter, Neuro-2a cells (FIG. 35); assay type: cell-based, mouse; conditions: versus ataluren, gentamicin, G418 (FIG. 35)
Experimental: FIG. 35 is a graph depicting the percentage of EGFP positive cells as measured by flow cytometry in three independent experiments at ~48 hours post transfection. Neuro-2a cells were transfected with an expression construct containing the EGFP-Q69X-TAG reporter (“EGFP-PTC”) (SEQ ID NO: 176) and either (i) including the GlncTA suppressor tRNA #196 (SEQ ID NO: 178) at the indicated copy number on the same construct, or (ii) treated with ataluren at the indicated concentration, (iii) treated with gentamicin at the indication concentration, or (iv) treated with G418 at the indicated concentration. […]
as §1

Molecule	readthrough activity when combined with the identified leader sequences (EGFP-Q69X-TAA reporter [1])	PTC readthrough compared with nonsense suppression drugs (EGFP-Q69X-TAA reporter [2])	cell viability (Neuro-2a cells)	PTC readthrough compared with nonsense suppression drugs (EGFP-Q69X-TAG reporter)
B1	showed high readthrough activity			
B2		greater readthrough than any of the nonsense suppression drugs	not accompanied by a decrease in cell viability	
B3			not accompanied by a decrease in cell viability	greater readthrough than any of the nonsense suppression drugs
